# Measured values as given in patent US12590147 (OBLIQUE THERAPEUTICS, dated 2026).
# Positions count from the first letter of the chain named.
# T1: OTV3-KLH (human; keyhole limpet, conjugated to the carrier via N-terminal Cys ; chain 1 pos 1: Cys chemically coupled to the KLH carrier (written C); linear peptide)
# T1 peptide: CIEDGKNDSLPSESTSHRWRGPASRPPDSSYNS
# T2: OTV4-KLH (human; keyhole limpet, conjugated to the carrier via N-terminal Cys ; chain 1 pos 1: Cys chemically coupled to the KLH carrier (written C); linear peptide)
# T2 peptide: T1 peptide with S24C
# T3: OTV5-KLH (human; keyhole limpet, (Pra-) at the N-terminus; C-terminal amide (-CONH2); cyclic; conjugated to the carrier via N-terminal Cys as stated in Example 4 ; chain 1: propargyl group (Pra-) on the N-terminus before Cys1, not …)
# T3 peptide: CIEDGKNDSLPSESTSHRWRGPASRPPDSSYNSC
# T4: OTV3-OVA (human, UniProt P01012 2-386 (chicken entry), conjugated to the carrier via N-terminal Cys)
# T4 sequence (peptide): T1 peptide
# T4 sequence: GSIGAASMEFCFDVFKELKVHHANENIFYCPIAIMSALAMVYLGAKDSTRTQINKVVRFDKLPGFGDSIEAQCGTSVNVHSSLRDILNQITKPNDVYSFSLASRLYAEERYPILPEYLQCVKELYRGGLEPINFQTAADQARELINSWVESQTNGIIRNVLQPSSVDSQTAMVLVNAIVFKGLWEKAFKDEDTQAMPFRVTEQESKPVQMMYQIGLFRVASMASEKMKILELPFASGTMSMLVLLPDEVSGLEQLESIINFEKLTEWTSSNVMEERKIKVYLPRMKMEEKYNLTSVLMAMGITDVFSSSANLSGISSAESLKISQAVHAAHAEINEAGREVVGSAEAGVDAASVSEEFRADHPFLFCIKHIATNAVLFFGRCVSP
# T5: OTV4-OVA (human, UniProt P01012 2-386 (chicken entry), conjugated to the carrier via N-terminal Cys)
# T5 sequence (peptide): T1 peptide with S24C
# T5 sequence: T4 sequence
# T6: OTV5-OVA (human, UniProt P01012 2-386 (chicken entry), (Pra-) at the N-terminus; C-terminal amide (-CONH2); cyclic; conjugated to the carrier via N-terminal Cys as stated in Example 4)
# T6 sequence (peptide): T3 peptide
# T6 sequence: T4 sequence
# B1: R4P1-C1 (phage Fab clone) (Fab, V domains shown)
# VH: QVQLQQSGPGLVKPSQTLSLTCAISGDSVSSNSAAWNWIRQSPSRGLEWLGRTYYRSKWYNDYAVSVKSRITINPDTSKNQFSLQLNSVTPEDTAVYYCARDDYDPVGMYAFDIWGQGTLVTVSS
# VL: LPVLTQPPSASGTPGQRVTISCSGSSSNIGSNTVNWYQQLPGTAPKLLIYRNTQRPSGVPDRFSGSKSGTSASLAISGLQSEDEADYYCEAWDDSMRGAAFGGGTQLTVL
# notes: also called phage clone R4P1-C1
# Columns and labels:
# [1] = biological target: T1, OTV3-KLH; test: monoclonal phage ELISA, replicate 1
# Experimental: (§1) Single *E. coli* clones were picked randomly selected during the biopanning step and cultured. Supernatants containing phage were prepared and purified. ELISA plates were coated with antigens conjugated to carriers or carriers alone (control), followed by washing, blocking, washing and addition of purified phage. After additional washing, bound phage was detected using anti-phage-HRP antibody.
# (§2) This example describes the production of a monoclonal antibody by phage display. The phage library used in this case was a commercially available human naïve LiAb-Fab library (high diversity of 2×10E^10 variants). After 4 rounds of biopanning and ELISA tests, 80 clones were selected and 5 different sequences were identified within this group of phage clones, represented by R4P1-C1, #1, #2, #3, and #4. Each of these phage clones were tested by ELISA for binding to each of the individual peptides OTV3, OTV4, and OTV5 each coupled to either BSA, OVA or KLH (a total of 9 peptide-conjugates). This is an important confirmation step to ensure clone specificity because due to their nature phages can sometimes bind unspecifically. In the ELISA tests (monoclonal phage ELISA tests) one phage Fab clone, R4P1-C1, bound specifically and strongly to all three of the peptides (all nine of the peptide-carrier conjugates), whereas the other phage Fab clones appeared to be non-specific binders (see Table GG below, all phages were tested at the same concentration).
# [2] = biological target: T2, OTV4-KLH; test: monoclonal phage ELISA, replicate 1
# Experimental: as §1, §2
# [3] = biological target: T3, OTV5-KLH; test: monoclonal phage ELISA, replicate 1
# Experimental: as §1, §2
# [4] = biological target: T4, OTV3-OVA; test: monoclonal phage ELISA, replicate 1
# Experimental: as §1, §2
# [5] = biological target: T5, OTV4-OVA; test: monoclonal phage ELISA, replicate 1
# Experimental: as §1, §2
# [6] = biological target: T6, OTV5-OVA; test: monoclonal phage ELISA, replicate 1
# Experimental: as §1, §2
# [7] = biological target: T7, OTV3-BSA (human; bovine, conjugated to the carrier via N-terminal Cys); test: monoclonal phage ELISA, replicate 1
# Experimental: as §1, §2
# [8] = biological target: T8, OTV4-BSA (human; bovine, conjugated to the carrier via N-terminal Cys); test: monoclonal phage ELISA, replicate 1
# Experimental: as §1, §2
# [9] = biological target: T9, OTV5-BSA (human; bovine, (Pra-) at the N-terminus; C-terminal amide (-CONH2); cyclic; conjugated to the carrier via N-terminal Cys as stated in Example 4); test: monoclonal phage ELISA, replicate 1
# Experimental: as §1, §2
# [10] = biological target: T1, OTV3-KLH; test: monoclonal phage ELISA, replicate 2
# Experimental: as §1, §2
# [11] = biological target: T2, OTV4-KLH; test: monoclonal phage ELISA, replicate 2
# Experimental: as §1, §2
# [12] = biological target: T3, OTV5-KLH; test: monoclonal phage ELISA, replicate 2
# Experimental: as §1, §2
# [13] = biological target: T4, OTV3-OVA; test: monoclonal phage ELISA, replicate 2
# Experimental: as §1, §2
# [14] = biological target: T5, OTV4-OVA; test: monoclonal phage ELISA, replicate 2
# Experimental: as §1, §2
# [15] = biological target: T6, OTV5-OVA; test: monoclonal phage ELISA, replicate 2
# Experimental: as §1, §2
# [16] = biological target: T7, OTV3-BSA; test: monoclonal phage ELISA, replicate 2
# Experimental: as §1, §2
# [17] = biological target: T8, OTV4-BSA; test: monoclonal phage ELISA, replicate 2
# Experimental: as §1, §2
# [18] = biological target: T9, OTV5-BSA; test: monoclonal phage ELISA, replicate 2
# Experimental: as §1, §2
# T7 sequence (P02769 25-607 limits assumed): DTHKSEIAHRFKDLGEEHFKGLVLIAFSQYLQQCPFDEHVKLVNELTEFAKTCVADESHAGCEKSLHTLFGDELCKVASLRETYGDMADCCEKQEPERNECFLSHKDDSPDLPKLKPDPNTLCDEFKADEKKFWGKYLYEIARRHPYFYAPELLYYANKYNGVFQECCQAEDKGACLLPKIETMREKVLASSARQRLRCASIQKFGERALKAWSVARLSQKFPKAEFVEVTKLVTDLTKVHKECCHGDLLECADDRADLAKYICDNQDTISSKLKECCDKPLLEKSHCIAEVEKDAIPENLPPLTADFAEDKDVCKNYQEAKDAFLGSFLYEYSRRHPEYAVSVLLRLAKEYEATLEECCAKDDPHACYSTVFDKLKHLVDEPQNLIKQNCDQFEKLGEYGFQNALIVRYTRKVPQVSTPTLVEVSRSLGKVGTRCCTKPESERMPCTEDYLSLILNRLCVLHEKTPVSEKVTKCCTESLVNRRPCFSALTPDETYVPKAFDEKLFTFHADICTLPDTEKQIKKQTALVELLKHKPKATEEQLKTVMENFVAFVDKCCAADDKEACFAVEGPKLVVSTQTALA
# T9 sequence (P02769 25-607 limits assumed): as above
# T8 sequence (P02769 25-607 limits assumed): as above
binder,measurement,setting,value
B1,ELISA signal,[1],3.13
same,ELISA signal,[2],2.81
same,ELISA signal,[3],2.74
same,ELISA signal,[4],2.85
same,ELISA signal,[5],2.84
same,ELISA signal,[6],2.61
same,ELISA signal,[7],2.87
same,ELISA signal,[8],2.95
same,ELISA signal,[9],2.63
same,ELISA signal,[10],2.94
same,ELISA signal,[11],2.51
same,ELISA signal,[12],2.58
same,ELISA signal,[13],2.72
same,ELISA signal,[14],2.78
same,ELISA signal,[15],2.49
same,ELISA signal,[16],2.65
same,ELISA signal,[17],2.8
same,ELISA signal,[18],2.56
